Values of other authors, collected in US20050261189A1, “Methods of promoting cardiac cell proliferation” (Hydra Biosciences, Inc., priority 2004, published 2005).

B1: Wnt11: Wnt polypeptide (protein, UniProt O96014 25-354, looked up)
Protein Wnt-11: IKWLALSKTPSALALNQTQHCKQLEGLVSAQVQLCRSNLELMHTVVHAAREVMKACRRAFADMRWNCSSIELAPNYLLDLERGTRESAFVYALSAAAISHAIARACTSGDLPGCSCGPVPGEPPGPGNRWGGCADNLSYGLLMGAKFSDAPMKVKKTGSQANKLMRLHNSEVGRQALRASLEMKCKCHGVSGSCSIRTCWKGLQELQDVAADLKTRYLSATKVVHRPMGTRKHLVPKDLDIRPVKDSELVYLQSSPDFCMKNEKVGSHGTQDRQCNKTSNGSDSCDLMCCGRGYNPYTDRVVERCHCKYHWCCYVTCRRCERTVERYVCK
B2: Wnt9a: Wnt polypeptide (protein, UniProt O14904 30-365, looked up)
Protein Wnt-9a: YFGLTGSEPLTILPLTLEPEAAAQAHYKACDRLKLERKQRRMCRRDPGVAETLVEAVSMSALECQFQFRFERWNCTLEGRYRASLLKRGFKETAFLYAISSAGLTHALAKACSAGRMERCTCDEAPDLENREAWQWGGCGDNLKYSSKFVKEFLGRRSSKDLRARVDFHNNLVGVKVIKAGVETTCKCHGVSGSCTVRTCWRQLAPFHEVGKHLKHKYETALKVGSTTNEAAGEAGAISPPRGRASGAGGSDPLPRTPELVHLDDSPSFCLAGRFSPGTAGRRCHREKNCESICCGRGHNTQSRVVTRPCQCQVRWCCYVECRQCTQREEVYTCKG
B3: Wnt4: Wnt polypeptide (protein, UniProt P56705 23-351, looked up)
Protein Wnt-4: SNWLYLAKLSSVGSISEEETCEKLKGLIQRQVQMCKRNLEVMDSVRRGAQLAIEECQYQFRNRRWNCSTLDSLPVFGKVVTQGTREAAFVYAISSAGVAFAVTRACSSGELEKCGCDRTVHGVSPQGFQWSGCSDNIAYGVAFSQSFVDVRERSKGASSSRALMNLHNNEAGRKAILTHMRVECKCHGVSGSCEVKTCWRAVPPFRQVGHALKEKFDGATEVEPRRVGSSRALVPRNAQFKPHTDEDLVYLEPSPDFCEQDMRSGVLGTRGRTCNKTSKAIDGCELLCCGRGFHTAQVELAERCSCKFHWCCFVKCRQCQRLVELHTCR
B4: Wnt7b: Wnt polypeptide (protein, UniProt P56706 25-349, looked up)
Protein Wnt-7b: ALSSVVALGANIICNKIPGLAPRQRAICQSRPDAIIVIGEGAQMGINECQYQFRFGRWNCSALGEKTVFGQELRVGSREAAFTYAITAAGVAHAVTAACSQGNLSNCGCDREKQGYYNQAEGWKWGGCSADVRYGIDFSRRFVDAREIKKNARRLMNLHNNEAGRKVLEDRMQLECKCHGVSGSCTTKTCWTTLPKFREVGHLLKEKYNAAVQVEVVRASRLRQPTFLRIKQLRSYQKPMETDLVYIEKSPNYCEEDAATGSVGTQGRLCNRTSPGADGCDTMCCGRGYNTHQYTKVWQCNCKFHWCCFVKCNTCSERTEVFTCK
B5: Wnt2: Wnt polypeptide (protein, UniProt P09544 26-360, looked up)
Protein Wnt-2: SWWYMRATGGSSRVMCDNVPGLVSSQRQLCHRHPDVMRAISQGVAEWTAECQHQFRQHRWNCNTLDRDHSLFGRVLLRSSRESAFVYAISSAGVVFAITRACSQGEVKSCSCDPKKMGSAKDSKGIFDWGGCSDNIDYGIKFARAFVDAKERKGKDARALMNLHNNRAGRKAVKRFLKQECKCHGVSGSCTLRTCWLAMADFRKTGDYLWRKYNGAIQVVMNQDGTGFTVANERFKKPTKNDLVYFENSPDYCIRDREAGSLGTAGRVCNLTSRGMDSCEVMCCGRGYDTSHVTRMTKCGCKFHWCCAVRCQDCLEALDVHTCKAPKNADWTTAT
B6: Wnt16: Wnt polypeptide (protein, UniProt Q9UBV4 30-365, looked up)
Protein Wnt-16: NWMWLGIASFGVPEKLGCANLPLNSRQKELCKRKPYLLPSIREGARLGIQECGSQFRHERWNCMITAAATTAPMGASPLFGYELSSGTKETAFIYAVMAAGLVHSVTRSCSAGNMTECSCDTTLQNGGSASEGWHWGGCSDDVQYGMWFSRKFLDFPIGNTTGKENKVLLAMNLHNNEAGRQAVAKLMSVDCRCHGVSGSCAVKTCWKTMSSFEKIGHLLKDKYENSIQISDKTKRKMRRREKDQRKIPIHKDDLLYVNKSPNYCVEDKKLGIPGTQGRECNRTSEGADGCNLLCCGRGYNTHVVRHVERCECKFIWCCYVRCRRCESMTDVHTCK
B7: Wnt1: Wnt polypeptide (protein, UniProt P04628 28-370, looked up)
Proto-oncogene Wnt-1: ANSSGRWWGIVNVASSTNLLTDSKSLQLVLEPSLQLLSRKQRRLIRQNPGILHSVSGGLQSAVRECKWQFRNRRWNCPTAPGPHLFGKIVNRGCRETAFIFAITSAGVTHSVARSCSEGSIESCTCDYRRRGPGGPDWHWGGCSDNIDFGRLFGREFVDSGEKGRDLRFLMNLHNNEAGRTTVFSEMRQECKCHGMSGSCTVRTCWMRLPTLRAVGDVLRDRFDGASRVLYGNRGSNRASRAELLRLEPEDPAHKPPSPHDLVYFEKSPNFCTYSGRLGTAGTAGRACNSSSPALDGCELLCCGRGHRTRTQRVTERCNCTFHWCCHVSCRNCTHTRVLHECL
B8: Wnt5b: Wnt polypeptide (protein, UniProt Q9H1J7 18-359, looked up)
Protein Wnt-5b: QLLTDANSWWSLALNPVQRPEMFIIGAQPVCSQLPGLSPGQRKLCQLYQEHMAYIGEGAKTGIKECQHQFRQRRWNCSTADNASVFGRVMQIGSRETAFTHAVSAAGVVNAISRACREGELSTCGCSRTARPKDLPRDWLWGGCGDNVEYGYRFAKEFVDAREREKNFAKGSEEQGRVLMNLQNNEAGRRAVYKMADVACKCHGVSGSCSLKTCWLQLAEFRKVGDRLKEKYDSAAAMRVTRKGRLELVNSRFTQPTPEDLVYVDPSPDYCLRNESTGSLGTQGRLCNKTSEGMDGCELMCCGRGYNQFKSVQVERCHCKFHWCCFVRCKKCTEIVDQYICK
B9: Wnt9b: Wnt polypeptide (protein, UniProt O14905 23-357, looked up)
Protein Wnt-9b: SYFGLTGREVLTPFPGLGTAAAPAQGGAHLKQCDLLKLSRRQKQLCRREPGLAETLRDAAHLGLLECQFQFRHERWNCSLEGRMGLLKRGFKETAFLYAVSSAALTHTLARACSAGRMERCTCDDSPGLESRQAWQWGVCGDNLKYSTKFLSNFLGSKRGNKDLRARADAHNTHVGIKAVKSGLRTTCKCHGVSGSCAVRTCWKQLSPFRETGQVLKLRYDSAVKVSSATNEALGRLELWAPARQGSLTKGLAPRSGDLVYMEDSPSFCRPSKYSPGTAGRVCSREASCSSLCCGRGYDTQSRLVAFSCHCQVQWCCYVECQQCVQEELVYTCKH
B10: Wnt3: Wnt polypeptide (protein, UniProt P56703 22-355, looked up)
Proto-oncogene Wnt-3: GYPIWWSLALGQQYTSLGSQPLLCGSIPGLVPKQLRFCRNYIEIMPSVAEGVKLGIQECQHQFRGRRWNCTTIDDSLAIFGPVLDKATRESAFVHAIASAGVAFAVTRSCAEGTSTICGCDSHHKGPPGEGWKWGGCSEDADFGVLVSREFADARENRPDARSAMNKHNNEAGRTTILDHMHLKCKCHGLSGSCEVKTCWWAQPDFRAIGDFLKDKYDSASEMVVEKHRESRGWVETLRAKYSLFKPPTERDLVYYENSPNFCEPNPETGSFGTRDRTCNVTSHGIDGCDLLCCGRGHNTRTEKRKEKCHCIFHWCCYVSCQECIRIYDVHTCK

test system: one or more non-cardiac cells types; conditions: cited from earlier work

Q: With Wnt10b: Wnt polypeptide as the molecule, how does the “Wnt signaling pathway shown in one or more non-cardiac cell types” value read?
A: Its value is “signal via the canonical pathway”.

Q: Which “Wnt signaling pathway shown in one or more non-cardiac cell types” value does the source give for B1 here?
A: The value was “signal via the non-canonical signaling pathway”.

Q: Which “Wnt signaling pathway shown in one or more non-cardiac cell types” value does the source give for B2 here?
A: The value was “signal via the canonical pathway”.

Q: With B3 as the molecule, how does the “Wnt signaling pathway shown in one or more non-cardiac cell types” value read?
A: The value was “signal via the non-canonical signaling pathway”.

Q: For B4, which “Wnt signaling pathway shown in one or more non-cardiac cell types” value is on record?
A: Its value is “signal via the non-canonical signaling pathway”.

Q: With B5 as the molecule, how does the “Wnt signaling pathway shown in one or more non-cardiac cell types” value read?
A: The value was “signal via the canonical pathway”.

Q: Which “Wnt signaling pathway shown in one or more non-cardiac cell types” value does the source give for B6 here?
A: Its value is “signal via the canonical pathway”.

Q: With B7 as the molecule, how does the “Wnt signaling pathway shown in one or more non-cardiac cell types” value read?
A: Its value is “signal via the canonical pathway”.

Q: With B8 as the molecule, how does the “Wnt signaling pathway shown in one or more non-cardiac cell types” value read?
A: The value was “signal via the non-canonical signaling pathway”.

Q: Which “Wnt signaling pathway shown in one or more non-cardiac cell types” value does the source give for B9 here?
A: Its value is “signal via the canonical pathway”.

Q: For B10, which “Wnt signaling pathway shown in one or more non-cardiac cell types” value is on record?
A: Its value is “signal via the canonical pathway”.
